# Bridges are numbered along the chain shown (N, C = ends). [ ]: non-standard residue; d: D form. The star is where a group is joined. DOTA = O=C(O)CN1CCN(CC(=O)O)CCN(CC(=O)*)CCN(CC(=O)O)CC1
# T1: DLL3 (target ligand immobilized on a SA sensor chip via streptavidin capture) (Homo sapiens (Human), UniProt Q9NYJ7 27-492, limits assumed)
# T1 sequence: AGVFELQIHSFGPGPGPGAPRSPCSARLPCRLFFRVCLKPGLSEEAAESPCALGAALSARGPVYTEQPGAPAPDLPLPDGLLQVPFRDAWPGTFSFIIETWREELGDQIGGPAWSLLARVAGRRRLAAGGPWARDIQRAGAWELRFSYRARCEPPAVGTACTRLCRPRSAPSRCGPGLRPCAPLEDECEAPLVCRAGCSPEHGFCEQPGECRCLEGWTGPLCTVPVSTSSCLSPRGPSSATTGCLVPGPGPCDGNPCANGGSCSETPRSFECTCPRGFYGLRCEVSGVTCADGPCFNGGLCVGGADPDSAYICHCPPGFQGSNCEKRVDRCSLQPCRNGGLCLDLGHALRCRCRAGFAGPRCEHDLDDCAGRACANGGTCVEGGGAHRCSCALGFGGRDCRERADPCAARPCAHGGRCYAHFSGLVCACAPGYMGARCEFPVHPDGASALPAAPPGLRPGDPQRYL
# B1: SEQ ID NO 69 (peptide)
# peptide: Ac-MWTICNNWHDCWP-NH2
# modifications: disulfide 5-11
# B2: SEQ ID NO 87 (peptide)
# peptide: Ac-MWAICNNWHDCWP-NH2
# modifications: disulfide 5-11
# SMILES: CC[C@H](C)[C@H](NC(=O)[C@H](C)NC(=O)[C@H](Cc1c[nH]c2ccccc12)NC(=O)[C@H](CCSC)NC(C)=O)C(=O)N[C@H]1CSSC[C@@H](C(=O)N[C@@H](Cc2c[nH]c3ccccc23)C(=O)N2CCC[C@H]2C(N)=O)NC(=O)[C@H](CC(=O)O)NC(=O)[C@H](Cc2c[nH]cn2)NC(=O)[C@H](Cc2c[nH]c3ccccc23)NC(=O)[C@H](CC(N)=O)NC(=O)[C@H](CC(N)=O)NC1=O
# B3: SEQ ID NO 88 (peptide)
# peptide: Ac-MWTACNNWHDCWP-NH2
# modifications: disulfide 5-11
# SMILES: CSCC[C@H](NC(C)=O)C(=O)N[C@@H](Cc1c[nH]c2ccccc12)C(=O)N[C@H](C(=O)N[C@@H](C)C(=O)N[C@H]1CSSC[C@@H](C(=O)N[C@@H](Cc2c[nH]c3ccccc23)C(=O)N2CCC[C@H]2C(N)=O)NC(=O)[C@H](CC(=O)O)NC(=O)[C@H](Cc2c[nH]cn2)NC(=O)[C@H](Cc2c[nH]c3ccccc23)NC(=O)[C@H](CC(N)=O)NC(=O)[C@H](CC(N)=O)NC1=O)[C@@H](C)O
# B4: SEQ ID NO 83 (peptide)
# peptide: Ac-MWTICNNWH[dA]CWP-NH2
# modifications: disulfide 5-11
# SMILES: CC[C@H](C)[C@H](NC(=O)[C@@H](NC(=O)[C@H](Cc1c[nH]c2ccccc12)NC(=O)[C@H](CCSC)NC(C)=O)[C@@H](C)O)C(=O)N[C@H]1CSSC[C@@H](C(=O)N[C@@H](Cc2c[nH]c3ccccc23)C(=O)N2CCC[C@H]2C(N)=O)NC(=O)[C@@H](C)NC(=O)[C@H](Cc2c[nH]cn2)NC(=O)[C@H](Cc2c[nH]c3ccccc23)NC(=O)[C@H](CC(N)=O)NC(=O)[C@H](CC(N)=O)NC1=O
# B5: SEQ ID NO 89 (peptide)
# peptide: Ac-MWTICANWHDCWP-NH2
# modifications: disulfide 5-11
# SMILES: CC[C@H](C)[C@H](NC(=O)[C@@H](NC(=O)[C@H](Cc1c[nH]c2ccccc12)NC(=O)[C@H](CCSC)NC(C)=O)[C@@H](C)O)C(=O)N[C@H]1CSSC[C@@H](C(=O)N[C@@H](Cc2c[nH]c3ccccc23)C(=O)N2CCC[C@H]2C(N)=O)NC(=O)[C@H](CC(=O)O)NC(=O)[C@H](Cc2c[nH]cn2)NC(=O)[C@H](Cc2c[nH]c3ccccc23)NC(=O)[C@H](CC(N)=O)NC(=O)[C@H](C)NC1=O
# B6: SEQ ID NO 86 (peptide)
# peptide: Ac-AWTICNNWHDCWP-NH2
# modifications: disulfide 5-11
# SMILES: CC[C@H](C)[C@H](NC(=O)[C@@H](NC(=O)[C@H](Cc1c[nH]c2ccccc12)NC(=O)[C@H](C)NC(C)=O)[C@@H](C)O)C(=O)N[C@H]1CSSC[C@@H](C(=O)N[C@@H](Cc2c[nH]c3ccccc23)C(=O)N2CCC[C@H]2C(N)=O)NC(=O)[C@H](CC(=O)O)NC(=O)[C@H](Cc2c[nH]cn2)NC(=O)[C@H](Cc2c[nH]c3ccccc23)NC(=O)[C@H](CC(N)=O)NC(=O)[C@H](CC(N)=O)NC1=O
# B7: SEQ ID NO 84 (peptide)
# peptide: Ac-MWTICNNWHDC[dA]P-NH2
# modifications: disulfide 5-11
# SMILES: CC[C@H](C)[C@H](NC(=O)[C@@H](NC(=O)[C@H](Cc1c[nH]c2ccccc12)NC(=O)[C@H](CCSC)NC(C)=O)[C@@H](C)O)C(=O)N[C@H]1CSSC[C@@H](C(=O)N[C@H](C)C(=O)N2CCC[C@H]2C(N)=O)NC(=O)[C@H](CC(=O)O)NC(=O)[C@H](Cc2c[nH]cn2)NC(=O)[C@H](Cc2c[nH]c3ccccc23)NC(=O)[C@H](CC(N)=O)NC(=O)[C@H](CC(N)=O)NC1=O
# B8: SEQ ID NO 81 (peptide)
# peptide: Ac-[dA]WTICNNWHDCWP-NH2
# modifications: disulfide 5-11
# SMILES: CC[C@H](C)[C@H](NC(=O)[C@@H](NC(=O)[C@H](Cc1c[nH]c2ccccc12)NC(=O)[C@@H](C)NC(C)=O)[C@@H](C)O)C(=O)N[C@H]1CSSC[C@@H](C(=O)N[C@@H](Cc2c[nH]c3ccccc23)C(=O)N2CCC[C@H]2C(N)=O)NC(=O)[C@H](CC(=O)O)NC(=O)[C@H](Cc2c[nH]cn2)NC(=O)[C@H](Cc2c[nH]c3ccccc23)NC(=O)[C@H](CC(N)=O)NC(=O)[C@H](CC(N)=O)NC1=O
# B9: SEQ ID NO 80 (peptide)
# peptide: {DOTA}-WTICNNWHDCWP-NH2
# modifications: disulfide 4-10
# B10: SEQ ID NO 79 (peptide)
# peptide: Ac-MSDCWLQWNCPFD-NH2
# modifications: disulfide 4-10
# SMILES: CSCC[C@H](NC(C)=O)C(=O)N[C@@H](CO)C(=O)N[C@@H](CC(=O)O)C(=O)N[C@H]1CSSC[C@@H](C(=O)N2CCC[C@H]2C(=O)N[C@@H](Cc2ccccc2)C(=O)N[C@@H](CC(=O)O)C(N)=O)NC(=O)[C@H](CC(N)=O)NC(=O)[C@H](Cc2c[nH]c3ccccc23)NC(=O)[C@H](CCC(N)=O)NC(=O)[C@H](CC(C)C)NC(=O)[C@H](Cc2c[nH]c3ccccc23)NC1=O
# B11: SEQ ID NO 68 (peptide)
# peptide: Ac-WTICADWAQCWP-NH2
# modifications: disulfide 4-10
# SMILES: CC[C@H](C)[C@H](NC(=O)[C@@H](NC(=O)[C@H](Cc1c[nH]c2ccccc12)NC(C)=O)[C@@H](C)O)C(=O)N[C@H]1CSSC[C@@H](C(=O)N[C@@H](Cc2c[nH]c3ccccc23)C(=O)N2CCC[C@H]2C(N)=O)NC(=O)[C@H](CCC(N)=O)NC(=O)[C@H](C)NC(=O)[C@H](Cc2c[nH]c3ccccc23)NC(=O)[C@H](CC(=O)O)NC(=O)[C@H](C)NC1=O
# B12: SEQ ID NO 70 (peptide)
# peptide: Ac-MWKICSDWQNCWP-NH2
# modifications: disulfide 5-11
# SMILES: CC[C@H](C)[C@H](NC(=O)[C@H](CCCCN)NC(=O)[C@H](Cc1c[nH]c2ccccc12)NC(=O)[C@H](CCSC)NC(C)=O)C(=O)N[C@H]1CSSC[C@@H](C(=O)N[C@@H](Cc2c[nH]c3ccccc23)C(=O)N2CCC[C@H]2C(N)=O)NC(=O)[C@H](CC(N)=O)NC(=O)[C@H](CCC(N)=O)NC(=O)[C@H](Cc2c[nH]c3ccccc23)NC(=O)[C@H](CC(=O)O)NC(=O)[C@H](CO)NC1=O
# B13: SEQ ID NO 71 (peptide)
# peptide: Ac-MWHICQEWATCWP-NH2
# modifications: disulfide 5-11
# SMILES: CC[C@H](C)[C@H](NC(=O)[C@H](Cc1c[nH]cn1)NC(=O)[C@H](Cc1c[nH]c2ccccc12)NC(=O)[C@H](CCSC)NC(C)=O)C(=O)N[C@H]1CSSC[C@@H](C(=O)N[C@@H](Cc2c[nH]c3ccccc23)C(=O)N2CCC[C@H]2C(N)=O)NC(=O)[C@H]([C@@H](C)O)NC(=O)[C@H](C)NC(=O)[C@H](Cc2c[nH]c3ccccc23)NC(=O)[C@H](CCC(=O)O)NC(=O)[C@H](CCC(N)=O)NC1=O
# Biological target: T1, DLL3 (target ligand immobilized on a SA …)
# Assay: SPR, Biacore S200, target ligand on SA chip, 25 C, 1:1 fit
# Procedure: Target ligand was immobilized on a SA sensor chip via streptavidin capture. A reference surface was set up for nonspecific binding and refractive index changes. For analysis of the kinetics of interactions, varying concentrations of peptides were injected at a flow rate of 50 μL/minute using running buffer containing 20 mM phosphate buffer with 2.7 mM KCl, 137 mM NaCl and 0.05% Surfactant P20. Sensorgram curves were fitted with 1:1 binding model, and affinity and kinetic parameters were obtained using either Biacore S200 evaluation software 1.1.1 or Biacore Insight evaluation 4.0.
row,Kd [nM],Binder
1,12,B1
2,53,B2
3,86,B3
4,320,B4
5,8.1,B5
6,7.6,B6
7,240,B7
8,6.5,B8
9,80,B9
10,32,B10
11,6.1,B11
12,340,B12
13,47,B13
